Measured values published in the supplement of paper PMC9170038.

Tested on: MS2 coat protein
Test: apparent KD of MS2 coat protein; designed switch direction (-1 OFF switch, 1 ON switch): -1; higher = weaker reporter binding
Outline: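 Each step of the titration lasted 0.8–1.5 h at the lowest concentration and 10–20 min at the highest. The protein, SNAP-549-labelled MS2 coat protein, went from 0.7 or 1.5 nM doubling to 3 µM over RNA switches transcribed on Illumina chips by stalled E. coli RNA polymerase. Normalised cluster fluorescence was curve-fitted, and the per-design median over clusters is given as apparent KD.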

[1] = Eterna round: R95, input ligand: FMN 200 uM
[2] = Eterna round: R95, input ligand: microRNA oligo, concentration not stated
[3] = Eterna round: R95, input ligand: none
[4] = input ligand: microRNA oligo, concentration not stated

Row | Sequence | apparent KD of MS2 coat protein (input ligand: FMN 200 uM) | apparent KD of MS2 coat protein (input ligand: none) | apparent KD of MS2 coat protein [2] | also measured
1 | GGCAUGUGAGGAUAUGCGAAGGGAAGGAGAGGGAAAGAGAAGCAGAAGGCACAUGAGGAUCACCCAUGUAAGGG [AK-MS2ROC-r4-exclusion4-8] (Eterna round: R97, puzzle: Exclusion 4) | 34.1 nM | 203 nM | – | –
2 | AAACCUGCCCAUGACCGCAAGCUUUUUACUUGUCUUACCACAUGAGGAUCACCCAUGUGACAUGGGCUCCUUAUAAA [Ceedbe] (puzzle: Sensor v3, turn-off variant 2) | – | – | 4.81 nM | apparent KD of MS2 coat protein [1]: 12.8 nM; apparent KD of MS2 coat protein [3]: 11.2 nM
3 | AAUUCACAUGAGGAUCACCCAUGUCAGGAUAUGGUUACGCGGGUUUCGGUGCGUGUGGCCAGAAGGGACAGCUA (puzzle: Exclusion 1) | – | – | 54.6 nM | –
4 | GAUACCUCAGUGAGGAUAUUUUAUAGAUUAACCAGGAAGAAGGCACAUGAGGAUCACCCAUGUCCACGGCAGCC [Eternabot (L1) Solution 10] (Eterna round: R97, puzzle: Brourd's mod of Exclusion 4) | 23.2 nM | 20.9 nM | – | –
5 | CUUUUGUGAGGAUAUCAGUAGUAGAACAAUAGUACUACUACUGAGAAGGCACAUGAGGAUCACCCAUGUUCCUU [Fiskers Ex 4 Super stable 44 mod 6] (puzzle: Exclusion 4) | – | – | 15.4 nM | –
6 | AUAAAUGAGGAGGAUAUCGAAUCGGAAACGAUUCGAGAAGGCCUAACAUGAGGAUCACCCAUGUUCCUUAAAUA [Mat - Exclusion 6 - Eli Mod - D64] (puzzle: Exclusion 6) | – | – | 25.3 nM | –
7 | GUGAAACAUGAGGAUCACCCAUGUGAGGAUAUGUUUUAGUACUGCUGACAGUACAUCUAUAGAAGGCACAAAGG [Mat - Mod of JL D69] (puzzle: Exclusion 1) | – | – | 25.4 nM | –
8 | GAAAAGGUAGGAUAUACGAAAAAAAAGGGUAGAAAAAAAGCACAUGAGGAUCACCCAUGUAGAAGGACCAAAAG [salish99_ex2_r3_018] (Eterna round: R96, puzzle: Exclusion 2) | – | – | – | apparent KD of MS2 coat protein [4]: 29.6 nM
9 | GAAAACGAAGAGGAUAUUUGAUAUCAUAGCUUCAAAGAAGGCUUCACAUGAGGAUCACCCAUGUGAUCUUCAAA [jl-ex6-4.06 ViennaUCT mod] (Eterna round: R97, puzzle: Exclusion 6) | 95.8 nM | 22.7 nM | – | –
10 | UUUAGUUCAGGAUAUGUAGACAUUAACAUGAGGAUCACCCAUGUAGAUCCUGAAUUAACUACAGAAGGGAGCAUUU [Mod of Brourd 8 - Jieux - Exclusion 5] (Eterna round: R97, puzzle: Exclusion 5) | 19.3 nM | 15.3 nM | – | –
11 | AAGACACUUAGAGGAUAUGUGAAAGGAAGUGUAACAGAAGGCUAGGUGAGAACAUGAGGAUCACCCAUGUGAUCACAUGCCAAA [PowerStrip EXNG 1.27] (Eterna round: R96, puzzle: Exclusion NG 1) | 20 nM | 12.1 nM | – | apparent KD of MS2 coat protein [4]: 11.9 nM
12 | CAUACAGUAGUUAGGAUAUUGCAACGCACACGGAACGAGAAGGGACAUGAGGAUCACCCAUGUAGACUGUAAAG [EX-4 Malc #7] (puzzle: Brourd's mod of Exclusion 4) | – | – | 18.5 nM | apparent KD of MS2 coat protein [1]: 20.1 nM; apparent KD of MS2 coat protein [3]: 24.7 nM
13 | CAUGAUUGGGAAGGAUAUUGACCUAGUUAGUGCCGAGAAGGUCCCUUUCACAUGAGGAUCACCCAUGUGAGACUGGUGUUCGAG [Ex NG1 #98] (Eterna round: R96, puzzle: Exclusion NG 1) | – | – | – | apparent KD of MS2 coat protein [4]: 19.6 nM
14 | GUGUAGAUAGGAUAUACGUGAGUCUAGCGAAGCUAGAUUCUACAUGAGGAUCACCCAUGUAGAAGGGUCUACAC [Fiskers Ex 2 - 27] (puzzle: Exclusion 2) | – | – | 15.1 nM | –
15 | GCCGAAAAUGUGAGGAUAUACCUAUGGAUACAUAGGUAGAAGGCACAUGAGGAUCACCCAUGUGUCCAAACGGC [Eli bmx4 4.22] (Eterna round: R97, puzzle: Brourd's mod of Exclusion 4) | 58.2 nM | 14.5 nM | – | –
16 | GUGUUUGGUGUAGGAUAUGUUUGUGGGUCGCGGGCAGAAGGACAUGAGGAUCACCCAUGUUUCGGGCUUGGCUUGGGCGGGCGC [-21, -19 kcal and 14% A] (Eterna round: R96, puzzle: Exclusion NG 1) | 16.7 nM | 17.6 nM | – | apparent KD of MS2 coat protein [4]: 12.4 nM
17 | UCUCCCUGGCGAGGAUAUCCUGUGCGGUUCCGGCUCGUGUCUGUUACAUGAGGAUCACCCAUGUGGGAGAAGGUGCCUGUGGCU [Design 93] (Eterna round: R96, puzzle: Exclusion NG 2) | 141 nM | 124 nM | – | apparent KD of MS2 coat protein [4]: 68 nM
18 | UUAAGUUCAGGAUAUGAUGAAUUAAACAUGAGGAUCACCCAUGUAGAUCCUGAAAUAACAUCAGAAGGGAAUAUUU [JL-ex5-4.51 Brourd mod] (Eterna round: R97, puzzle: Exclusion 5) | 57 nM | 17.6 nM | – | –

Row | Sequence | apparent KD of MS2 coat protein (input ligand: FMN 200 uM) | apparent KD of MS2 coat protein (input ligand: none) | apparent KD of MS2 coat protein [2] | also measured
19 | UGUCUUCAUAUCACAUGAGGAUCACCCAUGUUAUUCAUCUCGUAGGAUAUCGAGGUUUUUUAUUUCGAGAAGGACGUAUUGUUU [JR_ExcNG3_Sub077] (Eterna round: R96, puzzle: Exclusion NG 3) | 215 nM | 153 nM | – | apparent KD of MS2 coat protein [4]: 135 nM
20 | CCGCAUAUGGAGGAUAUCGUAUCGGAAACGAUACGAGAAGGCUAAACAUGAGGAUCACCCAUGUUCCUUAACGG [Fiskers Ex 6 - 29] (puzzle: Exclusion 6) | – | – | 15.2 nM | –
21 | AUAUUUAAGCUUUUGUGAAACAUGAGGAUCACCCAUGUCCUCAUACCUGGACAUUUAAGUCUAGGAGCUCGUCUUAU [Last end dangle 1] (Eterna round: R97, puzzle: Sensor, turn-off variant 1) | 518 nM | 558 nM | – | –
22 | UGGCUAAGAGGAUAUACAUUGAAUAAGAUUCAUGUAAAACUACAUGAGGAUCACCCAUGUAGAAGGCUUGGCCU [Mat - Exclusion 2 - JL Mod - D72] (Eterna round: R97, puzzle: Exclusion 2) | 25.4 nM | 17.4 nM | – | –
23 | UAAAAGGAAGGAUAUACACUUCAAAACCUCAUGUGACUUUCACAUGAGGAUCACCCAUGUAGAAGGUCCAAGGC [Letior] (puzzle: Exclusion 2) | – | – | 21.5 nM | –
24 | GAAGAAGAGAGAAUAGAAAACAUGAGGAUCACCCAUGUGAGAAGAUGAGGGUGUAAUAGGCUUUUGGCUCGUCUUAU (puzzle: Sensor v3, turn-off variant 1) | – | – | 89.7 nM | apparent KD of MS2 coat protein [1]: 37.9 nM; apparent KD of MS2 coat protein [3]: 47.2 nM
25 | AUAAUAGUAGGAGGAUAUCGCAGGAUAUGGGCCUUAAAACAUAACAUGAGGAUCACCCAUGUGCACGAGAAGGCCUGGAAAAUA [Orsolavera] (Eterna round: R96, puzzle: Exclusion NG 2) | 25.7 nM | 18.6 nM | – | apparent KD of MS2 coat protein [4]: 11.5 nM
26 | UAUGGUUAAGUCAGGAUAUGCACGAAGAGGUCUAUGCAGAAGGGACAUGAGGAUCACCCAUGUAAAGUCGUGUU [Ex4 #72] (Eterna round: R97, puzzle: Brourd's mod of Exclusion 4) | 57.3 nM | 36.6 nM | – | –
27 | CGUCCGGCUUCCCUUCAAAACAUGAGGAUCACCCAUGUUUUUGUUUUUGCGAGCUUUUUGCUUUUUGCUCGUCUUGU [Even Better Attempt] (puzzle: Sensor v3, turn-off variant 1) | – | – | 12.5 nM | apparent KD of MS2 coat protein [1]: 20.1 nM; apparent KD of MS2 coat protein [3]: 19.9 nM
28 | UACAAGCAAGGAUAUACAUGAGGAUCACCCAUGUCACUCCUAGCGCGGGUUUUGAAAUGUAGAAGGUGCACCUG [EX3 B.14] (Eterna round: R97, puzzle: Exclusion 3) | 17.3 nM | 20.5 nM | – | –
29 | CUUUUGUGAGGAUAUCAGUAGUAAUACAAUAGUAUUACUGCUGAGAAGGCACAUGAGGAUCACCCAUGUUCCUC [Ex4 344 Omei mod 10] (puzzle: Exclusion 4) | – | – | 53.6 nM | –
30 | AUCCGGCGUGUAGGAUAUGGUUCCGUUUCGGUUCCAGAAGGACAUGAGGAUCACCCAUGUGCCUGUCGUCGGUCGUCACCGGGC [salish99_ExNG1_r04_218] (Eterna round: R96, puzzle: Exclusion NG 1) | 43.7 nM | 16.5 nM | – | apparent KD of MS2 coat protein [4]: 13.4 nM
31 | GUCAGGUAUCGAGGAUAUGUGAAAGGAAGUGUAACAGAAGGCGAGGGCUUGACAUGAGGAUCACCCAUGUGAAGUGAUUCGAAG [PowerStrip EXNG 1.22] (Eterna round: R96, puzzle: Exclusion NG 1) | 51.8 nM | 62.9 nM | – | apparent KD of MS2 coat protein [4]: 52.5 nM
32 | UAAUGUGCGAGAGGAUAUCGUGUACAAAGUACACGAGAAGGCUUCACAUGAGGAUCACCCAUGUACCGAGGUGAAACACCUUGA [Omei Exc(NG)1 B] (Eterna round: R96, puzzle: Exclusion NG 1) | 950 nM | 383 nM | – | apparent KD of MS2 coat protein [4]: 110 nM
33 | UUCUUGGCAGGAUAUGCUUUUUUAGACAUGAGGAUCACCCAUGUGAUUAUUUUUGGUUUUGCAGAAGGGCCUUAAU [JR_E5_Sub042] (puzzle: Exclusion 5) | – | – | 59.9 nM | –
34 | CCUCUACAUGAGGAUCACCCAUGUCAGGAUAUCGUGUGUUUUUUUUCGGCCGCGCGUGCGAGAAGGGACGUCUU (puzzle: Exclusion 1) | – | – | 30.1 nM | –
35 | AAUACUAACACGAAAGUGUUAGUACAAUAAGCUUGUGAAACAUGAGGAUCACCCAUGUCCUCAUAAGCUCGUCUUAA [salish99_TOv2_r3_011] (puzzle: Sensor v3, turn-off variant 2) | – | – | 309 nM | apparent KD of MS2 coat protein [1]: 12.3 nM; apparent KD of MS2 coat protein [3]: 13.1 nM
36 | UUUUAGGGAGGAUAUACAUUUUUUUUAUUAUCCUCAUUAUUACAUGAGGAUCACCCAUGUAGAAGGCCCAUUUU [My Design] (puzzle: Exclusion 2) | – | – | 84 nM | –
